# In the DeepSol protein solubility set:
# Assay: soluble on expression in E. coli; label from the status in PepcDB or PDB records
row,Sequence,soluble on expression in E. coli
1,AHHHHHHGSRVLVTTWGNPFQWEPITYEYRGIKVKSRNTLPILVKTLEPERILILVADTMANYYDSGKNKPEIEEKSFSSYSEVVEDTKERILWHIKEEVIEELREEDPELAKKIENMLKDERITIEVLPGVGVFGNITVEGEMLDFYYYATYKLAEWLPVQNNLEVYLDLTHGINFMPTFTYRALRNLLGLLAYLYNVKFEIVNSEPYPLGVSQEIREDTILHIREIGEGVVRPRPQYSPVEGKLYWNAFISSVANGFPLVFASFYPNIRDVEDYLNKKLEEFLVGIEVGEREDGKPYVKREKALDRSFKNASKLYYALRVFNTKFQNYPKKEVPIEEIMEISKIFESLPRIGIILERQVEWLRNLVYGRLWYENGEQKIKKGLLEIIKDKKDKRKEAEALKKGKTISLAEAAKLTRIFSPSGERIETIESPNVVRNFIAHSGFEYNIVYVKYDRLSDRLYFFYKDKEKAANLAYEALLYRGEKE,soluble
2,AHHHHHHGSVIEEEGKVEILPRDVDLSKYVDSVEVDVDNFGDYHELRKELREKKMRFIDANVFIYAILKPKRELNEKELKIKRVSKEIFNRINGGEEVVTTVVHLSEVANVLEDAANLSFAISFLKDVLIKGNVIVEEVSDRDYMESVLLAEEKGVSINDALAYILMKRKGIEEIYTFDRHFENLDVRIVNS,soluble
3,AHHHHHHGSVKIGVIGLQGDVSEHIEATKRALERLGIEGSVIWVKRPEQLNQIDGVIIPGGESTTISRLMQRTGLFDPLKKMIEDGLPAMGTCAGLIMLAKEVIGATPEQKFLEVLDVKVNRNAYGRQVDSFEAPVKLAFDDKPFIGVFIRAPRIVELLSDKVKPLAWLEDRVVGVEQGNVIGLEFHPELTDDTRIHEYFLKKIV,soluble
4,AHHHHHHGSVNIMDEIIVVTTPTIPGYKIIEVKGIARGGIVMATHLGRDILALLRNIKGGEVKEYTQMMAEAREEALRRMIEHAKKLGANAVVNFRFATSNVGGGMAEVYAYGTAVVVEREK,not soluble
5,AIAADKEAAFDDAVEERVINEEYKIWKKNTPFLYDLVMTHALEWPSLTAQWLPDVTRPDGKDFSIHRLVLGTHTSDEQNHLVIASVQLPNDDAQFDASHYDSEKGEFGGFGSVSGKIEIEIKINHEGEVNRARYMPQNPCIIATKTPSCDVLVFDYTKHPSKPDPSGECNPDLRLRGHQKEGYGLSWNPNLSGNLLSASDDHTICLWDISAVPKEGKVVDAKTIFTGHTAVVEDVSWHLLHESLFGSVADDQKLMIWDTRSNNTSKPSHSVDAHTAEVNCLSFNPYSEFILATGSADKTVALWDLRNLKLKLHSFESHKDEIFQVQWSPHNETILASSGTDRRLNVWDLSKIGEEQSPEDAEDGPPELLFIHGGHTAKISDFSWNPNEPWVICSVSEDNIMQVWQMAENIYNDEDTEGSVDPEGQGS,soluble
6,AIAAQKISEAHEHIAKAEKYLKTSFMKWKPDYDSAASEYAKAAVAFKNAKQLEQAKDAYLQEAEAHANNRSLFHAAKAFEQAGMMLKDLQRMPEAVQYIEKASVMYVENGTPDTAAMALDRAGKLMEPLDLSKAVHLYQQAAAVFENEERLRQAAELIGKASRLLVRQQKFDEAAASLQKEKSMYKEMENYPTCYKKCIAQVLVQLHRADYVAAQKCVRESYSIPGFSGSEDCAALEDLLQAYDEQDEEQLLRVCRSPLVTYMDNDYAKLAISLKVPGGGGGKKKPSASASAQPQEEEDDEYAGGLC,soluble
7,AIAETEIHVPVGSPTIRKFQIFVDEHNVTEGAMKLIKELRPGWDPNLIRTKLFTDGTTNKLVGCYVEDCVEDVVLVRVYGNKTELIVDRDNELKSFQVLHANGCAPRLYCTFQNGICYEFMQGRALDTQDVRDPVLLRLIAREMARIHAIHAHNGCIPKPNLWIKMRKYFSLVATEFTEQASNIRIQQEVPSQEVLEQEMMWMKEHLSQLGSPVVLCHNDLLCKNIIHNAKEGHVRFIDYEYSSYNYQAFDIGNHFNEFAGMSEPDYNLYPSREMQLDWLQTYLQAYKLFTKKGEDVSERELETLYVQVNKFALASHFFWGFWALIQAKYSTIEFDFLGYAVLRFNQYFKTKPAVMALEIPK,soluble
8,AIAGRKSNRAKEKKQRRLEERAAMDAVCAKVDAANKLEDPLSAMPVFKKYDRNGLNLQIECKRVTALSPDTVEWAYELTRANMQTLYEQSEWGWKEREKREEMKDERAWYLLARDADSTPLAFSHFRFDVECGDEVLYCYEVQLESKVRRKGLGKFLIQILQLIANSTQMKKVMLTVFKHNHGAYQFFREALQFEIDETSPSMSGCCGEDCSYEILSRRTKYGEVSGHAHGGHCGGCCH,soluble
9,AIALTYIILVLHLQNHVWEDVTVHNSSLPPLAIKHPECLGLLHQLERSTDVWIQHYCILKDGCLYFYASIRSTQASGGLYLQGYSVSEQTHGFEQPVIELKPSSEEFKTFYFCAENKTENQRWIAALKTSIKKWLPLDQAIQEFMSRPLEETRM,soluble
10,AIANVWLLGRGELRRRHDDVLQLERAFLTDRTGLHFVNARSSEDLLALAESRRAEQQWPVLDAEWISPVGTDTCDDLVWQNLESTLDGRPDTFYSTAGFEAGNTLSGTGELAPGEAFLAYRFWRPVRVYAVQLRAFQADFHPGRPVYPFQVARVGVGCSLQAGMSLSYGADASAPGTSCNYRCFCTTEQQTLVFDDPMVGVYLVICLKGFPQQQLTDRLHYAAVSGIRVFGEPISSPALENELSCLISRGFILDGRDAARWLDLRSAQEHAAPMHIPEDEVI,soluble
11,AIAPTELSRTEKKSLIWLFKEHGLRVDGRSALRSRSVSVAVDVLPSTAGSSRVFVGRTNDVLVGINLELRQYNLPAHAEDDAKRGSIAFSVEFCGVASPEFQGRSTEVLEAELVSFLDTAYAASPEFLADLFCREQRLASDPGTLRVCCWDVYVDVLVLGASGGNILDAVTYAVRAALATTVVPSVYWQDSESGGSWELDDRAEYCALLNASNAPLSASGAFIPPLVRDSRTEHDQVTLVAPRWFIIDPCAEEETLAGCFLSVASDSAQHLRAIWKRGSLPVEPDVVLDAAQQCIRDSAYACQEMDHFISELVATEESESVDDVPG,soluble
12,AIASAEAADREAVSGSRPCTPPQTSWFEFLLNPSLLEQHLHSPHPDPSPVQLIFQFLEQASKPSVNEQNQVQPPVDNRRNRTLKLMALKVAAHLRWDLNMLEKGLTIPVLNMLLNELLCVSHVPPGVKHVDLDLSSLPPTTAMAVVFYNRWAIRTIVLSSFPEKQTKPGPHQLNMMNMLQQEKEHTENILSVLREQATDSIMVLEGALSIKKDFYIHL,soluble
13,AIASYCRQEGKDKIIFVTKEDHETPSSAELIADDPNDPFEEQGLILPNGDINWNCPCLGGMASGPCGEQFKSAFSCFHYSQEEIKGSDCLDQFRAMQECMQKYPELYPQEDDEDELEKEKQNKDEESSVTQSSDTKEESSS,soluble
14,AIATANLAATDDWGELLDVLDPGDPTGSRVIARYDRLRVHREGLLHRSVHVCVVRSVPDWPAQVHGLRNTNYKLLLQRRSESKAIAPGCWDLSCAEHLRAGESFEGAAVRGLQEELGLALAPDQQTTPIHALDDGEPALQLYDYPSVGLTDYEWNRIYVVFVTDQADEALAKLKLDSAEVAQVRWITRESLQMELAENPSHFTPWFRDQARKHLLPSAYN,soluble
15,AIAYRDRYPYYDGEVYDDTGVVFPENIERRPNGRRVIVEEPEDYGMPNDRGVEDEYDERNPFRGGHSMQPWNQSPFDHFDRLFETPFAGLDRGSFGGMFGNIEQSLRRLEEDFARGAGRGNAHVYSFSSKKHFGPEGEVYEESTTTTREGNRTEVRRHLKDSAAGNEEYAWKREIDGRGREVIRRRDGSGQEVTKENYYNLTPEERAQFEQQWRTLAREGLDWRGSEGNNASLPQLSDRSSWMEHDRNEHRGGLGGFFRKLFKHD,soluble
16,ALGVDKPREIAFEVLDRVRTGEAYANLVLPRLLSKHNLSGRDAAFATEITYGTLRNVGLLDEVIKAASGRELSDIDPEVLDVLRLGAYQVMFTRVEDHAAVDTSVKMVGGLKKFQATGFANAILRNITRKEPEQWLKELEPAEELARVAFRTAHPRWIA,not soluble
17,ALSGSSGYKFGVLAKIVNYMKTRHQRGDTHPLTLDEILDETQHLDIGLKQKQWLMTEALVNNPKIEVIDGKYAFKPKYNVR,soluble
18,AMAELKEFLNKPAATSDVPPAPAGFDFDAAKKLVDVRCNKCHTLDSVADLFRTKYKKTGQVNLIVKRMQGFPGSGISDDDAKTIGIWLHEKF,soluble
